These results are taken from article PMC5713876, “Molecular architectures of benzoic acid-specific type III polyketide synthases” (Acta Crystallographica. Section D, Structural Biology, 2017).

A word on the Km: it is the concentration of substrate that gives half-maximal velocity. As usually defined, the kcat is the maximal rate divided by the concentration of active sites. The term kcat/Km denotes the second-order rate constant that governs catalysis at low substrate concentration.

One data set has as its target T1, MdBIS3 (MdBIS3.1) (Malus domestica, UniProt K9MST3).
T1 construct: cDNA in pHIS8, E. coli BL21(DE3), N-terminal His8 tag cut with thrombin; homodimer
The experiment in a line: X-ray crystal structure, […] Å. It is filed as binding. The settings on record: crystals soaked with 15 mM benzoyl-CoA; CoA tunnel and active site, partial occupancy; active-site cysteine oxidized to sulfinic acid.

Substrate in data set [1]: CC(C)(COP(=O)(O)OP(=O)(O)OC[C@H]1O[C@@H](n2cnc3c(N)ncnc32)[C@H](O)[C@@H]1OP(=O)(O)O)[C@@H](O)C(=O)NCCC(=O)NCCSC(=O)CC(=O)O
In words: steady-state kinetics, LC-MS product quantification. The settings on record: starter substrate held constant (standard 20 µM), 0.1 M potassium phosphate pH 7.0, 37°C. It is filed as biochemical, Hypericum androsaemum. An excerpt:
(§1) steady-state kinetics, LC-MS product quantification on HaBPS

Substrate in data set [2]: CC(C)(COP(=O)(O)OP(=O)(O)OC[C@H]1O[C@@H](n2cnc3c(N)ncnc32)[C@H](O)[C@@H]1OP(=O)(O)O)[C@@H](O)C(=O)NCCC(=O)NCCSC(=O)c1ccccc1
Described as above. It is filed as biochemical, Hypericum androsaemum. The settings on record: malonyl-CoA held constant (standard 80 µM), 0.1 M potassium phosphate pH 7.0, 37°C.
Description: as §1

Substrate in data set [3]: CC(C)(COP(=O)(O)OP(=O)(O)OC[C@H]1O[C@@H](n2cnc3c(N)ncnc32)[C@H](O)[C@@H]1OP(=O)(O)O)[C@@H](O)C(=O)NCCC(=O)NCCSC(=O)CC(=O)O
The description is as above. In kind it is biochemical, Malus domestica. Conditions: starter substrate held constant (standard 15 µM; which starter not told), 0.1 M potassium phosphate pH 7.0, 37°C. An excerpt: (§2) steady-state kinetics, LC-MS product quantification on MdBIS3 (MdBIS3.1)

Substrate in data set [4]: CC(C)(COP(=O)(O)OP(=O)(O)OC[C@H]1O[C@@H](n2cnc3c(N)ncnc32)[C@H](O)[C@@H]1OP(=O)(O)O)[C@@H](O)C(=O)NCCC(=O)NCCSC(=O)c1ccccc1
The description is as above. It is filed as biochemical, Malus domestica. Conditions: malonyl-CoA held constant (standard 60 µM), 0.1 M potassium phosphate pH 7.0, 37°C.
Description: as §2

Substrate in data set [5]: CC(C)(COP(=O)(O)OP(=O)(O)OC[C@H]1O[C@@H](n2cnc3c(N)ncnc32)[C@H](O)[C@@H]1OP(=O)(O)O)[C@@H](O)C(=O)NCCC(=O)NCCSC(=O)c1ccccc1O
The data set is described as above. In kind it is biochemical, Malus domestica. Conditions: malonyl-CoA held constant (standard 60 µM), 0.1 M potassium phosphate pH 7.0, 37°C.
Description: as §2

Substrate in data set [6]: CC(C)(COP(=O)(O)OP(=O)(O)OC[C@H]1O[C@@H](n2cnc3c(N)ncnc32)[C@H](O)[C@@H]1OP(=O)(O)O)[C@@H](O)C(=O)NCCC(=O)NCCSC(=O)/C=C/c1ccc(O)cc1
The description is as above. In kind it is biochemical, Malus domestica. The settings on record: malonyl-CoA held constant (standard 100 µM), 0.1 M potassium phosphate pH 7.0, 37°C. The text has this:
(§3) steady-state kinetics, LC-MS product quantification on MdCHS2

Substrate in data set [7]: CC(C)(COP(=O)(O)OP(=O)(O)OC[C@H]1O[C@@H](n2cnc3c(N)ncnc32)[C@H](O)[C@@H]1OP(=O)(O)O)[C@@H](O)C(=O)NCCC(=O)NCCSC(=O)CC(=O)O
The description is as above. The settings on record: coumaroyl-CoA held constant (standard 60 µM), 0.1 M potassium phosphate pH 7.0, 37°C. It is filed as biochemical, Malus domestica.
Description: as §3

Substrate in data set [8]: CC(C)(COP(=O)(O)OP(=O)(O)OC[C@H]1O[C@@H](n2cnc3c(N)ncnc32)[C@H](O)[C@@H]1OP(=O)(O)O)[C@@H](O)C(=O)NCCC(=O)NCCSC(=O)CC(=O)O
The data set is described as above. In kind it is biochemical, Malus domestica. The settings on record: starter substrate held constant (standard 15 µM; which starter not told), 0.1 M potassium phosphate pH 7.0, 37°C. An excerpt: (§4) steady-state kinetics, LC-MS product quantification on MdBIS1 (MdBIS1.1)
This is another data set of the same source.

Substrate in data set [9]: CC(C)(COP(=O)(O)OP(=O)(O)OC[C@H]1O[C@@H](n2cnc3c(N)ncnc32)[C@H](O)[C@@H]1OP(=O)(O)O)[C@@H](O)C(=O)NCCC(=O)NCCSC(=O)c1ccccc1
The description is as above. Conditions: malonyl-CoA held constant (standard 60 µM), 0.1 M potassium phosphate pH 7.0, 37°C. In kind it is biochemical, Malus domestica.
Description: as §4
The source holds these as a separate data set.

Substrate in data set [10]: CC(C)(COP(=O)(O)OP(=O)(O)OC[C@H]1O[C@@H](n2cnc3c(N)ncnc32)[C@H](O)[C@@H]1OP(=O)(O)O)[C@@H](O)C(=O)NCCC(=O)NCCSC(=O)c1ccccc1O
The description is as above. It is filed as biochemical, Malus domestica. The settings on record: malonyl-CoA held constant (standard 60 µM), 0.1 M potassium phosphate pH 7.0, 37°C.
Description: as §4
The source holds these as a separate data set.

For the molecule `CC(C)(COP(=O)(O)OP(=O)(O)OC[C@H]1O[C@@H](n2cnc3c(N)ncnc32)[C@H](O)[C@@H]1OP(=O)(O)O)[C@@H](O)C(=O)NCCC(=O)NCCSC(=O)c1ccccc1` [Benzoyl-CoA], the “X-ray crystal structure, 1.20 Å” value on MdBIS3 (MdBIS3.1) was “co-crystallization of MdBIS3 with benzoyl-CoA, resulting in intact benzoyl-CoA molecules with partial occupancies”.

B1: HaBPS (Hypericum androsaemum) (protein)
chain: MAPAMEYSTQNGQGEGKKRASVLAIGTTNPEHFILQEDYPDFYFRNTNSEHMTELKEKFKRICVKSHIRKRHFYLTEEILKENQGIATYGAGSLDARQRILETEVPKLGQEAALKAIAEWGQPISKITHVVFATTSGFMMPGADYVITRLLGLNRTVRRVMLYNQGCFAGGTALRVAKDLAENNEGARVLVVCAENTAMTFHAPNESHLDVIVGQAMFSDGAAALIIGACPDVASGERAVFNILSASQTIVPGSDGAITAHFYEMGMSYFLKEDVIPLFRDNIAAVMEEAFSPLGVSDWNSLFYSIHPGGRGIIDGVAGNLGIKDENLVATRHVLGEYGNMGSACVMFILDELRKSSKVNGKPTTGDGKEFGCLIGLGPGLTVEAVVLQSVPILQ
notes: codon-optimized synthetic gene in pHIS8, E. coli BL21(DE3), N-terminal His8 tag cut with thrombin; homodimer
Take B1: the Km in data set [1] is 2.8 ± 0.7 µM. Further, in data set [2], the Km is reported as 1.3 ± 0.5 µM, the kcat stood at 0.0183 s⁻¹ and the kcat/Km came to 14000 M⁻¹ s⁻¹.

B2: MdBIS3 (MdBIS3.1) (Malus domestica) (protein)
chain: MAPLVKNEPQHAKILAIGTANPPNVYHQKDYPDFLFRVTKNEHRTDLREKFDRICEKSRTKKRYLHLTEEMLKANPNIYTYGAPSLDVRQDICNIEVPKLGQEAALKAIKEWGQPISRITHLIFCTASCVDMPGCDFQLIKLLGLDPSVTRTMIYEAGCYAGATVLRMAKDFAENNKGARVLVVCAEITTVFFHGLTDTHLDILVGQALFADGASAVIVGANPEPEIERPLFEIVACRQTILPNSEHGVVANIREMGFNYYLSGDVPKFVGGNVVDFMTKTFEKVDGKKKDWNSLFFSVHPGGPAIVDQVEEKLGLKEGKLRATRHVLSEYGNMGAPTVHFILDEMRNKSIEEGKTTTGEGLEWGVVIGIGPGLTVETAVLRSESIRC
notes: cDNA in pHIS8, E. coli BL21(DE3), N-terminal His8 tag cut with thrombin; homodimer
Take B2: the Km in data set [3] is given as 4.1 ± 1.9 µM; in data set [4], 0.5 ± 0.1 µM; in data set [5], 1.1 ± 0.4 µM. The kcat in data set [4] was 0.135 s⁻¹; in [5], 0.1 ± 0.00167 s⁻¹. The values for the kcat/Km in [4] and in data set [5] were 270000 M⁻¹ s⁻¹ and 90000 M⁻¹ s⁻¹, respectively.

B3: MdCHS2 (Malus domestica) (protein)
chain: MVTVEEVRKAQRAEGPATVLAIGTATPSNCVDQATYPDYYFRITNSEHKTELKEKFQRMCDKSMIKKRYMYLTEEILKENPTVCEYMAPSLDARQDMVVVEVPRLGKEAATKAIKEWGQPKSKITHLVFCTTSGVDMPGADYQLTKLLGLRPYVKRLMMYQQGCFAGGTVLRLAKDLAENNKGARVLVVCSEITAVTFRGPSDTHLDSLVGQALFGDGAAAVIIGADPLPEVEKPLFELVSAAQTILPDSDGAIDGHLREVGLTFHLLKDVPGLISKNIEKSLNEAFKPIGISDWNSLFWIAHPGGPAILDQVESKLALKPEKLEATRQVLSNYGNMSSACVLFILDEVRRKSTEKGLRTTGEGLEWGVLFGFGPGLTVETVVLHSVAA
notes: as for B2
For the molecule B3, in data set [6], the Km is 17.9 ± 6.1 µM, the kcat worked out at 0.02 ± 0.00167 s⁻¹ and the specificity constant (kcat/Km) stood at 1120 M⁻¹ s⁻¹. Besides, the Km in data set [7] is listed as 12.8 ± 2.7 µM.

B4: MdBIS1 (MdBIS1.1) (Malus domestica) (protein)
chain: MAPLVKNHGEHQHAKILAIGTANPPNVYYQKDYPDFLFRVTKNEHRTDLREKFDRICEKSRTRKRYLHLTEEILKANPSIYTYGAPSLDVRQDMLNPEVPKLGQQAALKAIKEWGQPISKITHLIFCTASCVDMPGADFQLVKLLGLNPSVTRTMIYEAGCYAGATVLRLAKDFAENNEGARVLVVCAEITTVFFHGLTDTHLDILVGQALFADGASAVIVGANPEPKIERPLFEIVACRQTIIPNSEHGVVANIREMGFTYYLSGEVPKFVGGNVVDFLTKTFEKVDGKNKDWNSLFFSVHPGGPAIVDQVEEQLGLKEGKLRATRHVLSEYGNMGAPSVHFILDDMRKKSIEEGKSTTGEGLEWGVVIGIGPGLTVETAVLRSESITC
notes: cDNA in pHIS8, E. coli BL21(DE3), N-terminal His8 tag cut with thrombin
With B4, the Km is 6.8 ± 1.7 µM in data set [8], 0.8 ± 0.2 µM in data set [9] and 1.6 ± 0.4 µM in data set [10]. Further, the catalytic constant (kcat) is 0.2833 ± 0.00167 s⁻¹ in [9] and 0.2083 ± 0.00167 s⁻¹ in [10]. Besides, the results for the kcat/Km in data set [9] and in data set [10] were 350000 M⁻¹ s⁻¹ and 130000 M⁻¹ s⁻¹, respectively.
